A short description of this data set: protein stability index of a GFP-peptide fusion (GPS, HEK-293T) (PSI 1-6); higher = more stable. The settings on record: c terminus: a fixed tail appended.

± gives the standard deviation.
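Also: 24-mer peptide tiles fused after GFP, lentivirally expressed, FACS-sorted into six equal bins by GFP/DsRed ratio, decoded by Illumina sequencing, PSI is the read-weighted mean bin number.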

On to AADDFRLKYENELALRQGVEADIN [KRT15], for which the protein stability index runs as follows: (treatment: DMSO) 4.77 ± 0.29; (treatment: MLN4924 1 uM, 8 h) 4.64 ± 0.23.

Regarding AADIVNFLTVGSVLQMWHIVDKCT [ZBTB22], the protein stability index turned out to be 3.24 ± 0.88 (treatment: DMSO) and 3.65 ± 0.2 (treatment: MLN4924 1 uM, 8 h).

As to AAESPDPPQSPQGASSLPTTMNYP [MAGEA3], the protein stability index reads like this: (treatment: DMSO) 5.23 ± 0.13; (treatment: MLN4924 1 uM, 8 h) 5.3 ± 0.1.

Regarding AAFCPQLDDSTVARELAITDSEHS [RETREG3], the protein stability index was 5.26 ± 0.16 (treatment: DMSO) and 5.14 ± 0.16 (treatment: MLN4924 1 uM, 8 h).

AALNALQPPEFRNESSLASTLKTL [VMA21]: the protein stability index by setting is: (treatment: DMSO) 3.44 ± 0.2; (treatment: MLN4924 1 uM, 8 h) 3.51 ± 0.18.

For the sequence AAQPMTKKRKVDGLSTEAEQPFIP [PRAME], the protein stability index (treatment: DMSO) came to 4.43 ± 0.21 and the protein stability index (treatment: MLN4924 1 uM, 8 h) turned out to be 4.55 ± 0.27.

With AASPGEAPAASEGAAAPATPTPVA [SNAP91], the protein stability index is, setting by setting: (treatment: DMSO) 5.38 ± 0.15; (treatment: MLN4924 1 uM, 8 h) 5.53 ± 0.25.

For AAVAQKPRSHFTTPAPMSSAWKTV [MYBL2], the protein stability index (treatment: DMSO) was found to be 3.06 ± 0.14 and the protein stability index (treatment: MLN4924 1 uM, 8 h) turned out to be 2.97 ± 0.22.

On to ACIAYIRLTQYMDGSGMPKTMQSE [CAMK2D], for which the protein stability index runs as follows: (treatment: DMSO) 2.88 ± 0.5; (treatment: MLN4924 1 uM, 8 h) 2.55 ± 0.59.

Regarding ADAAEDEEVDVTSVDPIAAFCSSD [RBBP5], the protein stability index reads like this: (treatment: DMSO) 5.57 ± 0.2; (treatment: MLN4924 1 uM, 8 h) 5.55 ± 0.2.

For the sequence ADGVKPQTNSTKNSAAATSPKGTL [CAMK2B], the protein stability index came out at 5.24 ± 0.14 (treatment: DMSO) and 5.4 ± 0.3 (treatment: MLN4924 1 uM, 8 h).

On to ADIKQYIGPPSAAAIFKIYLSCLE [TRIP13], for which the protein stability index was determined as 2.19 ± 0.4 (treatment: DMSO) and 2.27 ± 0.22 (treatment: MLN4924 1 uM, 8 h).

As for ADIMISFVRGDHRDNSPFDGPGGN [MMP1], the protein stability index runs as follows: (treatment: DMSO) 2.96 ± 0.31; (treatment: MLN4924 1 uM, 8 h) 3.07 ± 0.36.

ADSLASKVTRLKSLALDIDRDAED [BET1L]: the protein stability index is 5.3 ± 0.2 (treatment: DMSO) and 5.21 ± 0.21 (treatment: MLN4924 1 uM, 8 h).

Regarding AEASHYNSDLNNLLFCCQCVDVVF [RHOBTB3], the protein stability index (treatment: DMSO) stood at 2.52 ± 0.49 and the protein stability index (treatment: MLN4924 1 uM, 8 h) worked out at 2.54 ± 0.54.

Regarding AEGARPLRENVPRVIMIVTDGRPQ [MATN2], the protein stability index is, setting by setting: (treatment: DMSO) 2.83 ± 0.61; (treatment: MLN4924 1 uM, 8 h) 3.56 ± 0.35.

As for AGNCPECGTPLRKSNFRVQLFEDP [MNAT1], the protein stability index reads like this: (treatment: DMSO) 3.62 ± 0.33; (treatment: MLN4924 1 uM, 8 h) 4.08 ± 0.2.

AGNNEHCGNIKAPSLQAWNDAPCD [CD207]: the protein stability index is, setting by setting: (treatment: DMSO) 4.75 ± 0.33; (treatment: MLN4924 1 uM, 8 h) 4.71 ± 0.13.

AGSEQKGQIIKDIDSGSPAEEAGL [PDZK1]: the protein stability index reads like this: (treatment: DMSO) 5.61 ± 0.11; (treatment: MLN4924 1 uM, 8 h) 5.26 ± 0.27.

Regarding AIILSSCLLGLGSLVLILSLSYTV [SLC2A12], the protein stability index (treatment: DMSO) is 3.06 ± 0.4 and the protein stability index (treatment: MLN4924 1 uM, 8 h) stood at 3.26 ± 0.097.

As to AIKCSPSLHVDDRERMELLEEAKK [RIPK4], the protein stability index runs as follows: (treatment: DMSO) 5.12 ± 0.65; (treatment: MLN4924 1 uM, 8 h) 5.28 ± 0.33.

Sequence AITTDCLQILAYGNQESKLIILAS [CTNNB1] displayed a protein stability index (treatment: DMSO) of 2.85 ± 0.64 and a protein stability index (treatment: MLN4924 1 uM, 8 h) of 2.81 ± 0.84.

On to AKEVTIAKADTTSTVTPVPGQEKG [EHMT1], for which the protein stability index reads like this: (treatment: DMSO) 5.36 ± 0.28; (treatment: MLN4924 1 uM, 8 h) 5.52 ± 0.2.

As to AKQRAKEAQERELRKREKAEEKER [LRRC59], the protein stability index stood at 5.45 ± 0.14 (treatment: DMSO) and 5.52 ± 0.36 (treatment: MLN4924 1 uM, 8 h).

For the sequence ALEEADKMFLRTREPALDGGFQMH [EID1], the protein stability index runs as follows: (treatment: DMSO) 3.75 ± 0.066; (treatment: MLN4924 1 uM, 8 h) 3.64 ± 0.42.

Take ALKDSLRPKLSEEQQRIIAILLDA [VDR]: the protein stability index (treatment: DMSO) was 2.44 ± 0.2 and the protein stability index (treatment: MLN4924 1 uM, 8 h) came to 2.44 ± 0.41.

Take ALPENEFKKQIWLLFEYPESSSPA [KCNA4]: the protein stability index reads like this: (treatment: DMSO) 2.45 ± 0.16; (treatment: MLN4924 1 uM, 8 h) 2.44 ± 0.5.

In turn, ALQNKDTYEPFCKVPVITSSKEEQ [KCTD10] had a protein stability index (treatment: DMSO) of 4.4 ± 0.14 and a protein stability index (treatment: MLN4924 1 uM, 8 h) of 4.5 ± 0.16.

As to ALQSRAAQRHRGSAKDGGPQPPDA [PLEKHN1], the protein stability index by setting is: (treatment: DMSO) 4.57 ± 0.49; (treatment: MLN4924 1 uM, 8 h) 4.96 ± 0.34.

For the sequence ALRNFACLTTGDVIAINYNEKIYE [UFD1], the protein stability index runs as follows: (treatment: DMSO) 2.21 ± 0.49; (treatment: MLN4924 1 uM, 8 h) 2.29 ± 0.46.

On to ALVAAGGAPEDDEEDDGRGRGLLR [DENND6A], for which the protein stability index is, setting by setting: (treatment: DMSO) 5.5 ± 0.15; (treatment: MLN4924 1 uM, 8 h) 5.33 ± 0.14.

Turning to ALVVPKGNTAVSVLMLLVALLFTG [SCAMP3], the protein stability index reads like this: (treatment: DMSO) 2.98 ± 0.75; (treatment: MLN4924 1 uM, 8 h) 2.62 ± 0.45.

Sequence AMLKALLGSKHKVCMDLRANLKQV [TNNI2] had a protein stability index (treatment: DMSO) of 2.42 ± 0.18 and a protein stability index (treatment: MLN4924 1 uM, 8 h) of 2.33 ± 0.43.

As to AMVEFVKLLNRCCHLFSTYVASHK [ACBD3], the protein stability index was determined as 2.97 ± 0.19 (treatment: DMSO) and 2.85 ± 0.16 (treatment: MLN4924 1 uM, 8 h).

Regarding APKGKGRKPAAGAQSAGTQQVAAV [BRD3], the protein stability index was 4.98 ± 0.33 (treatment: DMSO) and 5.04 ± 0.24 (treatment: MLN4924 1 uM, 8 h).

Consider AQEEPWEKKESLGAAQEALSIQLQ [ZNF232], for which the protein stability index reads like this: (treatment: DMSO) 4.91 ± 0.4; (treatment: MLN4924 1 uM, 8 h) 5 ± 0.15.

Values taken from the supplement of paper PMC10567573.
